Data on six molecules can be found in US20240199761A1 (AstraZeneca / MedImmune, published 2024).

Test [1] deals with T1, recombinant human PAD2 (human, UniProt Q9Y2J8 1-665, enzymatically biotinylated on an Avi-tag (when captured on the SPR chip)).
T1 construct: also called hPAD2; Human PAD2 (RD220)
In words: SPR (Biacore 8K), N-terminally tagged against C-terminally tagged recombinant PAD2.

The target of test [2] is T2, recombinant mouse PAD2 (mouse, UniProt Q08642 1-673).
T2 construct: Recombinant and tagged
Nature of the test: ratio of SPR KDs, mouse PAD2 against human PAD2; biotinylated PAD captured on C1-streptavidin, antibody flowed over.

Test [3] addresses T3, human PAD2, recombinant, tags at the N-terminus (human, UniProt Q9Y2J8 1-665, enzymatically biotinylated on an Avi-tag where captured on streptavidin).
T3 construct: not shown: N-terminal tags incl; Avi-tag
Nature of the test: SPR; biotinylated PAD2 on C1-streptavidin, antibody flowed over. Background: Surface plasmon resonance follows binding to a sensor surface in real time, without labels.

For test [4], the target named is T4, cynomolgus PAD2, recombinant, tags at the N-terminus (cynomolgus, UniProt G7NUR0 1-665, enzymatically biotinylated on an Avi-tag where captured on streptavidin).
T4 construct: also called Cyno PAD2; not shown: N-terminal tags incl; Avi-tag
Described as above.

In test [5] the target is T5, mouse PAD2, recombinant, tags at the N-terminus (mouse, UniProt Q08642 1-673, enzymatically biotinylated on an Avi-tag where captured on streptavidin).
T5 construct: not shown: N-terminal tags incl; Avi-tag
The description is as above.

Test [6] concerns the target T3, human PAD2, recombinant, tags at the …. The test is described as above. The source holds these as a separate data set.
Test [7] has as its target T4, cynomolgus PAD2, recombinant, tags at …. The test is described as above. This is another data set of the same source.
For test [8], the target named is T5, mouse PAD2, recombinant, tags at the …. The description is as above. The source holds these as a separate data set.
A further test has as its target T6, huFcRn (human, UniProt P55899 24-297; P61769 21-119, limits assumed).
T6 construct: also called human neonatal Fc receptor
In words: huFcRn affinity chromatography, pH gradient elution.

The target in test [9] is T2, recombinant mouse PAD2. In words: ratio of SPR KDs, mouse PAD2 against human PAD2; biotinylated antibody captured on C1-streptavidin, PAD flowed over.
The target in test [10] is T3, human PAD2, recombinant, tags at the …. In words: SPR; biotinylated antibody on C1-streptavidin, PAD2 flowed over.
Test [11] deals with T4, cynomolgus PAD2, recombinant, tags at …. The description is as above.
The target of test [12] is T5, mouse PAD2, recombinant, tags at the …. The description is as above.
Test [13] has as its target T3, human PAD2, recombinant, tags at the …. The description is as above. This is another data set of the same source.
The target in test [14] is T4, cynomolgus PAD2, recombinant, tags at …. The test is described as above. This is another data set of the same source.
Test [15] addresses T5, mouse PAD2, recombinant, tags at the …. Described as above. This is another data set of the same source.
Test [16] deals with T1, recombinant human PAD2. In words: specificity ELISA: biotinylated PAD on a streptavidin plate, detection with anti-human IgG Fc HRP, Binding (RFU); antibody concentration not given. (In general: ELISA stands for enzyme-linked immunosorbent assay.)
Another test deals with T7, recombinant human PAD4 (human, UniProt Q9UM07 1-663, enzymatically biotinylated on an Avi-tag (when captured on the SPR chip)).
T7 construct: also called hPAD4; Human PAD4 (RD223)
Described as above.

Test [17] has as its target T8, PAD2 (species not stated) (Homo sapiens (Human), UniProt Q9Y2J8 1-665, Biotinylated in the specificity ELISA. The SPR material was enzymatically biotinylated on an Avi-tag.).
T8 construct: Biotinylated in the specificity ELISA; also called biotinylated PAD2; not shown: Avi-tag and any purification tag on the recombinant PAD2
Nature of the test: specificity ELISA: biotinylated PAD on a streptavidin plate, detection with anti-human IgG Fc HRP, fluorescence (RFU); antibody concentration not given.

The target in test [18] is T9, PAD4 (species not stated) (Homo sapiens (Human), UniProt Q9UM07 1-663, Biotinylated in the specificity ELISA. The SPR material was enzymatically biotinylated on an Avi-tag.).
T9 construct: Biotinylated in the specificity ELISA; monomer and dimer forms seen in iSCAT; also called biotinylated PAD4; not shown: Avi-tag and any purification tag on the recombinant PAD4
The test is described as above.

B1: Clone 22 (141LO0035 hIgG1 pgl-4), anti-PAD2, as Fab (Fab, V domains shown)
VH: not shown
VL: SYVLTQPPSVSVSPGQTASITCSGDKVGDKYVSWYQQKPGQSPVLVIYQDSQRPSGIPERFSGSNSGNTATLTISGTQAMDEADYYCQTWAPDVLLFGSGTKVTVL
notes: also called Clone 22 (Fab); anti-PAD2 Fab
Turning to B1, the “fold higher affinity than in the previous assay (Table 69)” value with recombinant human PAD2 [1] stood at 10 fold.

B2: Clone 22 (Fab) (141LO0035 hIgG1 pgl-4) (Fab, V domains shown)
VH: not shown
VL: SYVLTQPPSVSVSPGQTASITCSGDKVGDKYVSWYQQKPGQSPVLVIYQDSQRPSGIPERFSGSNSGNTATLTISGTQAMDEADYYCQTWAPDVLLFGSGTKVTVL
notes: Tested as a Fab; Only the variable domains are tied to Clone 22; also called anti-PAD2 Fab
With B2, the “fold difference in KD, mouse/human” value with recombinant mouse PAD2 [2] amounted to 10 fold.

B3: anti-PAD2 Clone 22 (141LO0035 hIgG1 pgl-4), Fab (Fab, V domains shown)
VH: not shown
VL: SYVLTQPPSVSVSPGQTASITCSGDKVGDKYVSWYQQKPGQSPVLVIYQDSQRPSGIPERFSGSNSGNTATLTISGTQAMDEADYYCQTWAPDVLLFGSGTKVTVL
notes: Tested as Fab; also called Clone 22 (Fab)
With B3, the Kd (usually the free concentration of one partner at which half of the binding sites on the other are occupied at equilibrium, for simple one-to-one binding) in test [3] worked out at 0.0131 nM; in test [4], 0.0292 nM; in test [5], 0.131 nM; in [6], 0.0131 nM; in test [7], 0.0292 nM; in test [8] it was 0.131 nM. The off-rate (koff) (as a rule, a measure of how fast the partners let go of each other) in test [3] worked out at 4.77e-05 s⁻¹; in test [4], 7.03e-05 s⁻¹; in test [5], 0.000462 s⁻¹. The kon – broadly, a measure of how fast the partners come together – in [3] was 3.67e+06 M⁻¹ s⁻¹; in test [4], 2.39e+06 M⁻¹ s⁻¹; in [5] it was 3.59e+06 M⁻¹ s⁻¹.

B4: Clone 12 (Bis3, FQQ-YTE; Fab anti-PAD2, scFv anti-PAD4) (bispecific antibody, human IgG1, lambda)
heavy: not shown
light: SYVLTQPPSVSVSPGQTASITCSGDKVGDKYVSWYQQKPGQSPVLVIYQDSQRPSGIPERFSGSNSGNTATLTISGTQAMDEADYYCQTWAPDVLLFGSGTKVTVLGQPKAAPSVTLFPPSSEELQANKATLVCLISDFYPGAVTVAWKADSSPVKAGVETTTPSKQSNNKYAASSYLSLTPEQWKSHRSYSCQVTHEGSTVEKTVAPTECS
notes: Bivalent bispecific IgG-HC-scFv; also called PAD240012; Bis3 = scFv (PAD4)-Fab(PAD2)
Take B4: in the test with huFcRn, the “HPLC retention” value was 22.8 min and the Relative retention came out at 0.746. The “fold difference in KD, mouse/human” value in the test with recombinant mouse PAD2 [9] was found to be 2.1 fold.

B5: Clone 12, Bis3 anti-PAD2 Fab / anti-PAD4 scFv, Fc FQQ-YTE (bispecific antibody, human IgG1, lambda)
heavy: not shown
light: SYVLTQPPSVSVSPGQTASITCSGDKVGDKYVSWYQQKPGQSPVLVIYQDSQRPSGIPERFSGSNSGNTATLTISGTQAMDEADYYCQTWAPDVLLFGSGTKVTVLGQPKAAPSVTLFPPSSEELQANKATLVCLISDFYPGAVTVAWKADSSPVKAGVETTTPSKQSNNKYAASSYLSLTPEQWKSHRSYSCQVTHEGSTVEKTVAPTECS
notes: Bivalent for PAD2 and for PAD4; In the rows marked ^# the antibody was chemically biotinylated; also called PAD240012
In the case of B5, the Kd in test [10] came to 6.76 pM; in [11], 0.0138 nM; in test [12], 0.0142 nM; in [13], 6.76 pM; in test [14], 0.0138 nM; in test [15] it was 0.0142 nM. Moreover, the koff is 4.05e-05 s⁻¹ in [10], 5.74e-05 s⁻¹ in [11] and 6.89e-05 s⁻¹ in [12]. Also, the kon was found to be 5.6e+06 M⁻¹ s⁻¹ in test [10], 4.19e+06 M⁻¹ s⁻¹ in test [11] and 4.85e+06 M⁻¹ s⁻¹ in [12].

B6: R347 Bis3 FQQYTE (antibody, human IgG1, lambda)
light chain: ELVLTQPASVSGSPGQSITISCTGTSSDVGGYNYVSWYQQHPGKAPKLMIYDVSKRPSGVSNRFSGSKSGNTASLTISGLQAEDEADYYCSSYTSSSTLVFGGGTKLTVLGQPKAAPSVTLFPPSSEELQANKATLVCLISDFYPGAVTVAWKADSSPVKAGVETTTPSKQSNNKYAASSYLSLTPEQWKSHRSYSCQVTHEGSTVEKTVAPTECS
heavy chain with C-terminal scFv: EVQLLESGGGLVQPGGSLRLSCTTSGFTFNTYAMSWVRQAPGKGLEWLSGINNNGRTAFYADSVKGRFTISRDNSKNTLYLQINSLRADDTAVYFCAKDVRFIAVPGDSWGQGTLVTVSSASTKGPSVFPLAPSSKSTSGGTAALGCLVKDYFPEPVTVSWNSGALTSGVHTFPAVLQSSGLYSLSSVVTVPSSSLGTQTYICNVNHKPSNTKVDKRVEPKSCDKTHTCPPCPAPEFQGGPSVFLFPPKPKDTLYITREPEVTCVVVDVSHEDPEVKFNWYVDGVEVHNAKTKPREEQYNSTYRVVSVLTVLHQDWLNGKEYKCQVSNKALPAPIEKTISKAKGQPREPQVYTLPPSREEMTKNQVSLTCLVKGFYPSDIAVEWESNGQPENNYKTTPPVLDSDGSFFLYSKLTVDKSRWQQGNVFSCSVMHEALHNHYTQKSLSLSPGKGGGGSGGGGSEVQLLESGGGLVQPGGSLRLSCTTSGFTFNTYAMSWVRQAPGKGLEWLSGINNNGRTAFYADSVKGRFTISRDNSKNTLYLQINSLRADDTAVYFCAKDVRFIAVPGDSWGQGTLVTVSSGGGGSGGGGSGGGGSGGGGSELVLTQPASVSGSPGQSITISCTGTSSDVGGYNYVSWYQQHPGKAPKLMIYDVSKRPSGVSNRFSGSKSGNTASLTISGLQAEDEADYYCSSYTSSSTLVFGGGTKLTVL
notes: also called Bis3 control (R347)
For B6, the binding result (with recombinant human PAD2 [16]; with recombinant human PAD4; in test [17]; in [18]) was “no binding” each time.
